The assay addresses human CD73 on human cell lines (human) (UniProt P21589). Put plainly: cell-based or functional assay.

Sequence of human CD73 on human cell lines (human) (P21589 27-549): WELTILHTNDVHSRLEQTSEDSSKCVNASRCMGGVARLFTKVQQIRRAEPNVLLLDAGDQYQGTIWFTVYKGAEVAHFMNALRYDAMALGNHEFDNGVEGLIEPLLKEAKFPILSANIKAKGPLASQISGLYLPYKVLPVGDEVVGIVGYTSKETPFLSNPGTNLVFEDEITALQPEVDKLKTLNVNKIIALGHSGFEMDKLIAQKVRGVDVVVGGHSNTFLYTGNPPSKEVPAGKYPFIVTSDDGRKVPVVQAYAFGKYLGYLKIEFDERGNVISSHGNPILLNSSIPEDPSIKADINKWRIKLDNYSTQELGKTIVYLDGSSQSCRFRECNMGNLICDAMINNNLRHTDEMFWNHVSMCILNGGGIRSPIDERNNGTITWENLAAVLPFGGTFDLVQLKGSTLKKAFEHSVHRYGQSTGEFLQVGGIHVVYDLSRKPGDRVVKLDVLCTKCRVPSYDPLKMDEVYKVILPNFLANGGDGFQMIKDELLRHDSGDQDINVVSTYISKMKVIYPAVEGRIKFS

B1: mAb-CD73.4-IgG2 (antibody, V domains shown, not shown: a dimerising Fc or GST)
VH: QVQLVESGGGVVQPGRSLRLSCAASGFTFSNYGMHWVRQAPGKGLEWVAVILYDGSNKYYPDSVKGRFTISRDNSKNTLYLQMNSLRAEDTAVYYCARGGSSWYPDSFDIWGQGTMVTVSS
VL: DIQMTQSPSSLSASVGDRVTITCRASQGISSWLAWYQQKPEKAPKSLIYAASSLQSGVPSRFSGSGSGTDFTLTISSLQPEDFATYYCQQYNSYPLTFGGGTKVEIKR
With B1, the internalization T1/2, Calu6 worked out at 36 min; the internalization T1/2, NCI-H292 was found to be 16.6 min; the internalization Ymax, Calu6 stood at 75.6%; the internalization Ymax, NCI-H292 is 78.4%.

Values taken from patent US20200299400A1.
